PMC9029856, “Impact of Different [Tc(N)PNP]-Scaffolds on the Biological Properties of the Small cRGDfK Peptide: Synthesis, In Vitro and In Vivo Evaluations” (Molecules, 2022)
Several values for one entry are separate records, joined by “and”; a condition that tells them apart may be missing. Identical values can stand only once.

System: not given
Assay: not given
Design: species or system Sprague Dawley rats
Conditions: rat, in vivo
Procedure: As expected, MRT values of liver and kidneys were much higher than the dose of stomach, spleen, lung, and heart.
The time–activity curves of the main organs were obtained using the biodistribution data (%IA/organ) as input for the CoKiMo spreadsheet software. Then, the organ mean residence times (MRT) were computed by integration of the organ activity curves, extrapolated until 5 half-lives of Tc-99m (30 h) and corrected for its physical decay, to evaluate the pharmacokinetic profile of each radiolabeled peptide.

| Substance | MRT Blood [min] | MRT Heart [min] | MRT Kidney [min] | MRT Liver [min] | MRT Lung [min] | MRT Spleen [min] | MRT Stomach [min] |
| --- | --- | --- | --- | --- | --- | --- | --- |
| [Tc(N)(H2NS-cRGDfK)(PNP3)]^+ [^99mTc1] | 14.7 | 0.3 | 9.2 | 30.5 | 0.9 | 1.2 | 1.5 |
| [Tc(N)(H2NS-cRGDfK)(PNP3OH)]^+ [^99mTc3] | 14.5 | 0.4 | 36.7 | 26.7 | 1.6 | 0.8 | 2.1 |
| [Tc(N)(H2NS-cRGDfK)(PNP43)]^+ [^99mTc2] | 16.9 | 0.4 | 30.7 | 25.9 | 1.6 | 0.8 | 2.1 |

System: receptor-negative human melanoma M21L cells
Assay: Cell uptake and internalization in M21L cells
Format: cell-based
Conditions: negative M21L cell line, 37 °C, 90 min
Procedure: Cell uptake and internalization studies were performed on receptor-positive human melanoma M21 (expressing high levels of αvβ3 integrin and moderate level of integrin αvβ5), human breast cancer MCF7 (exclusively expressing αvβ5), and receptor-negative human melanoma M21L cell lines. The expression of αvβ3 and αvβ5 by cells was already evaluated by flow cytometry (Table 2). The stability of each radiolabeled peptide in the culture media before and after cell exposure was assessed.
Experiments were conducted in suspension at 37 °C. The working conditions were set up to avoid cell damage and/or death. With the use of these information, the cells were pre-incubated in sterile glass tubes at 37 °C for 10 min, in the presence or not of cRGDfK pentapeptide (50 µL; 1.65 mM).
Then, 1 mL of the cell suspension (1 × 10^6 cells/mL) was incubated with intermittent agitation with 10 µL (10 µCi) of ^99mTc1–3. At 90 min, the cells were moved in Eppendorf microcentrifuge tubes (1.5 mL) and the incubation was interrupted by centrifugation (3000 rpm for 5 min at 10 °C). The supernatant (S1) was separated from the pellet. The cell pellet was treated 10 min at room temperature with saline acetate buffer (CH3COOH 0.2M/NaCl 0.5 M) to remove the membrane-bound compound. After centrifugation (3000 rpm for 10 min at 10 °C), the supernatant (S2) was separated from the pellet (P1), and each fraction was collected, placed in a separated counting tube, and the activity was measured using a NaI counter (Cobra II, Packard) to estimate both the cell uptake and the internalized fraction.
The uptake of complexes was expressed as percentage cell uptake of the total activity on 10^6 cells (% cell uptake/10^6 cells).
All assessments were conducted in triplicate for three experiments.

| Substance | cell uptake (sum of surface bound and internalized radioactivity) [% cell uptake/10^6 cells] |
| --- | --- |
| [Tc(N)(H2NS-cRGDfK)(PNP3)]^+ [^99mTc1] | 1.77 ± 0.20 |
| [Tc(N)(H2NS-cRGDfK)(PNP3OH)]^+ [^99mTc3] | 1.73 ± 0.27 |
| [Tc(N)(H2NS-cRGDfK)(PNP43)]^+ [^99mTc2] | 1.65 ± 0.40 |

System: not given
Assay: not given
Format: physicochemical
Conditions: not given
Procedure: To explore the impact of the PNP ligand on the lipophilicity of the complexes, Log Ps in a mixture of n-octanol and PBS were determined. The lipophilicity decreased in the order ^99mTc1 > ^99mTc2 > ^99mTc3. The lipophilic character of each compound correlated well with the corresponding HPLC retention time and protein binding behavior.
Determination of log P values. n-Octanol/PBS partition coefficients were determined by vortex mixing (20 min) 3.0 mL of n-octanol, 3.0 mL of PBS and 100 µL of the radiolabeled compound purified as above. After centrifugation (3000 g for 10 min), aliquots (100 µL) of both the organic and the aqueous phases were collected and counted with a γ-counter.

| Substance | Log P |
| --- | --- |
| [Tc(N)(H2NS-cRGDfK)(PNP3)]^+ [^99mTc1] | −1.72 ^1 |
| [Tc(N)(H2NS-cRGDfK)(PNP3OH)]^+ [^99mTc3] | −2.39 |
| [Tc(N)(H2NS-cRGDfK)(PNP43)]^+ [^99mTc2] | −1.95 |

System: M21 (αvβ3-positive) and M21L (αvβ3-negative) melanoma tumors
Assay: not given
Format: in vivo, NSG mice
Conditions: 120 min p.i.
Procedure: In vivo tumor uptake. The in vivo integrin targeting properties of the [^99mTcN(PNP)]-labeled peptide were evaluated in M21 (integrin-positive) and M21L (integrin-negative) melanoma-bearing mice by comparing the percentage of tumor uptake of the three compounds in tumors and the respective target-to-non-target ratios. Biodistribution data outlined some differences in organ uptake compared with those attained in rats at the same injection time because the rate of metabolism is different in each animal species. […] The high renal uptake of radiotracers is partially due to their rate of excretion as well as to a specific uptake by integrins expression in the kidneys; for ^99mTc3, the M21-to-kidney ratio was 1.37.
Human melanoma M21(αvβ3-positive) were injected subcutaneously (s.c. 1 × 10^6 cells) in the right flank of six week-old male NSG mice (Charles River Laboratories). As a negative control, M21L (αvβ3-negative) were inoculated s.c. (1 × 10^6 cells) in the left flank of the same mice. Fifteen days after the inoculation, when the tumors are palpable (5–3 mm), the mice were injected in the tail vein with the selected radiolabeled peptide (20 µCi/100 µL of PBS). A group of six animals was sacrificed at 120 min p.i. by CO2 inhalation. A sample of blood was collected and tumors and normal tissues of interest were dissected, rinsed to remove the excess of blood, weighted, and their radioactivity measured using a NaI counter. Results are expressed as the percentage of injected activity per gram (% IA/g) and tumor-to-organ ratios were calculated.

| Substance | M21/M21L ratio | M21/blood ratio | M21/kidneys ratio | M21/liver ratio | M21/lung ratio | M21/muscle ratio |
| --- | --- | --- | --- | --- | --- | --- |
| [Tc(N)(H2NS-cRGDfK)(PNP3)]^+ [^99mTc1] | 1.83 | 29.96 | 0.77 | 0.88 | 2.53 | 9.15 |
| [Tc(N)(H2NS-cRGDfK)(PNP3OH)]^+ [^99mTc3] | 5.60 | 73.42 | 1.23 | 1.11 | 2.98 | 16.72 |
| [Tc(N)(H2NS-cRGDfK)(PNP43)]^+ [^99mTc2] | 2.57 | 11.26 | 0.32 | 0.44 | 1.04 | 3.54 |

Same assay, conditions: integrin-negative M21L control tumor, 120 min p.i.

| Substance | M21L tumor uptake [%IA/g] |
| --- | --- |
| [Tc(N)(H2NS-cRGDfK)(PNP3)]^+ [^99mTc1] | 1.73 ± 0.19 |
| [Tc(N)(H2NS-cRGDfK)(PNP3OH)]^+ [^99mTc3] | 0.70 ± 0.16 |
| [Tc(N)(H2NS-cRGDfK)(PNP43)]^+ [^99mTc2] | 0.42 ± 0.05 |

Same assay, conditions: integrin-positive M21 xenograft, 120 min p.i.

| Substance | M21 tumor uptake |
| --- | --- |
| [Tc(N)(H2NS-cRGDfK)(PNP3)]^+ [^99mTc1] | 3.2 ± 0.6 %IA/g and 3.17 ± 0.60 %IA/g |
| [Tc(N)(H2NS-cRGDfK)(PNP3OH)]^+ [^99mTc3] | 3.9 ± 0.7 %IA/g and 3.92 ± 0.69 %IA/g |
| [Tc(N)(H2NS-cRGDfK)(PNP43)]^+ [^99mTc2] | 1.1 ± 0.2 %IA/g and 1.08 ± 0.24 %IA/g |

Same assay, conditions: tumor-bearing mice, 120 min p.i.

| Substance | Blood [%IA/g] | Heart [%IA/g] | Intestine [%IA/g] | Kidneys [%IA/g] | Liver [%IA/g] | Lungs [%IA/g] | Muscle [%IA/g] | Spleen [%IA/g] | Stomach [%IA] |
| --- | --- | --- | --- | --- | --- | --- | --- | --- | --- |
| [Tc(N)(H2NS-cRGDfK)(PNP3)]^+ [^99mTc1] | 0.07 ± 0.02 | 0.47 ± 0.03 | 2.30 ± 0.10 | 4.10 ± 0.37 | 3.59 ± 0.31 | 1.25 ± 0.23 | 0.37 ± 0.04 | 1.61 ± 0.01 | 1.22 ± 0.15 |
| [Tc(N)(H2NS-cRGDfK)(PNP3OH)]^+ [^99mTc3] | 0.05 ± 0.01 | 0.44 ± 0.09 | 3.09 ± 0.62 | 3.34 ± 0.18 | 3.22 ± 0.24 | 1.32 ± 0.20 | 0.23 ± 0.03 | 1.43 ± 0.19 | 1.05 ± 0.14 |
| [Tc(N)(H2NS-cRGDfK)(PNP43)]^+ [^99mTc2] | 0.12 ± 0.03 | 0.48 ± 0.07 | 2.45 ± 0.29 | 3.38 ± 0.36 | 2.43 ± 0.23 | 1.04 ± 0.08 | 0.31 ± 0.05 | 1.26 ± 0.04 | 1.02 ± 0.16 |
